# Values quoted from earlier work in PMC11121562.
# Target: Cyclin C (Homo sapiens) (UniProt P24863)
# Sequence of UniProt P24863 (P24863 whole entry): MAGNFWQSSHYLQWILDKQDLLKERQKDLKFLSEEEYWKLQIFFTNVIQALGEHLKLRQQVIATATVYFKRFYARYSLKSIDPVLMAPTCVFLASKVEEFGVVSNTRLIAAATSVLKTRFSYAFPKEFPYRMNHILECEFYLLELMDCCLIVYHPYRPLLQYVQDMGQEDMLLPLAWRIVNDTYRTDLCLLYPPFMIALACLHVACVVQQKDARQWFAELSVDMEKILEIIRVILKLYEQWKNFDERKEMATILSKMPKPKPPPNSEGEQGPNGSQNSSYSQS
substance,measurement,value
CDK8 (from UniProt P49336),Kd,7.05 nM
